Test results published in patent publication US20220135701A1 (Genentech, published 2022).
Where two headings read alike, the source gives them in different places.

Assays:
human MerTK [1] = target: T1, human MerTK (human, UniProt Q12866 26-499); assay: SPR BIAcore T200, Ab captured, 37C
T1 construct: also called HuMER
T1 sequence: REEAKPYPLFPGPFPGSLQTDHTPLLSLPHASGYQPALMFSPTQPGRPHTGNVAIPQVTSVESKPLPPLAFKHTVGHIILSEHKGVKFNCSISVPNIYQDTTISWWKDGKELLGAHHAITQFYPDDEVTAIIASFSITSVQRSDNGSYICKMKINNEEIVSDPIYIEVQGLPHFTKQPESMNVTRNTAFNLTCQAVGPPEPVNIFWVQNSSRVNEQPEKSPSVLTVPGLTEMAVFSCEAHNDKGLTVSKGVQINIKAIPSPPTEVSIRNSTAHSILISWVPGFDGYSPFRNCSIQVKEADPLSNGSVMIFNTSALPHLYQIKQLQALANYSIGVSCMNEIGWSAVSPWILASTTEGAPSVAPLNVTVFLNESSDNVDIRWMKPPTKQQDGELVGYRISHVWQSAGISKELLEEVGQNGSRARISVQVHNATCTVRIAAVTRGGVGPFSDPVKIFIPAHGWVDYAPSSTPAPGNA
Method: (§1) Each rabbit and humanized antibody was subjected to a binding assay to determine its affinity to MerTK derived from various species.
(§2) All binding affinity determinations were obtained using Surface Plasmon Resonance (SPR) measurements from a BIAcore™-T200 instrument. Briefly, each rabbit or humanized antibody was captured to achieve approximately 100 RU (Response Units). Then, 3-fold serial dilutions of MerTK from various species (0.4 nM to 100 nM) diluted in HBS-EP buffer (0.01M HEPES pH 7.4, 0.15M NaCl, 3 mM EDTA and 0.05% v/v surfactant P20) was injected into the BIAcore™-T200 instrument at 25° C. or 37° C. with a flow rate of 30 μl/min. Association rates (kₒₙ) and dissociation rates (koff) were calculated using a simple one-to-one Langmuir binding model (BIAcore T200 evaluation software version 2.0). The equilibrium dissociation constant (KD) was calculated as the ratio koff/kₒₙ.

rat MerTK [2] = target: T2, rat MerTK (rat, UniProt P57097 23-496, limits assumed); assay: SPR BIAcore T200, Ab captured, 37C
T2 construct: Soluble analyte in SPR
T2 sequence (looked up): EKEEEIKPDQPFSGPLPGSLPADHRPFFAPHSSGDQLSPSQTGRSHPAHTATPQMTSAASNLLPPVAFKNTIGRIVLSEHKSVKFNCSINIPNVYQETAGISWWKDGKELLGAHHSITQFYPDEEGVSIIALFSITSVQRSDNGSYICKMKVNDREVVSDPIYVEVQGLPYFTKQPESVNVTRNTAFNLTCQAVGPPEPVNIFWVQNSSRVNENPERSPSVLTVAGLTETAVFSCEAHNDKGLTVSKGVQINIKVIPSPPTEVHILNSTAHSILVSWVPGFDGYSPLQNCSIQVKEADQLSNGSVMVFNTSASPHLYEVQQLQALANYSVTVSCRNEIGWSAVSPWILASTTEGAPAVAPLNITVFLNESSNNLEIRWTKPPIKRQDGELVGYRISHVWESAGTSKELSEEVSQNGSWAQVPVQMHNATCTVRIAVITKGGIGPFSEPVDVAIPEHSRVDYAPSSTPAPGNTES
Method: as §1, §2

mouse MerTK [3] = target: T3, mouse MerTK (mouse, UniProt Q60805 23-496); assay: SPR BIAcore T200, Ab captured, 37C
T3 construct: also called MuMER
T3 sequence (looked up): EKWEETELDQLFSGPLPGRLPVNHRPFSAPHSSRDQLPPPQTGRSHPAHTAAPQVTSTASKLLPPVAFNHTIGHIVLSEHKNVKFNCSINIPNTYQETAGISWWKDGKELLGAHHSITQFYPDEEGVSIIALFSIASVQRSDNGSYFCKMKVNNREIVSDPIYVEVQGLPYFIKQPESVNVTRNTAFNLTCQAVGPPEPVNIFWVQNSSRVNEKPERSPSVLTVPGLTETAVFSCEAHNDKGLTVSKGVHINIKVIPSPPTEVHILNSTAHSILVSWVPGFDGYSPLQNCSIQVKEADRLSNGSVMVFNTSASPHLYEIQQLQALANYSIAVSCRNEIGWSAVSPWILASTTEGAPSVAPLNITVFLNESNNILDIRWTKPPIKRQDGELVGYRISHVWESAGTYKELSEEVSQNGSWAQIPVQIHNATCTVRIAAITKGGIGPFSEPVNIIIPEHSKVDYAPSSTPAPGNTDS
Method: as §1, §2

cynomolgus monkey MerTK [4] = target: T4, cynomolgus monkey MerTK (cynomolgus monkey, UniProt A0A2K5V1H9 32-505); assay: SPR BIAcore T200, Ab captured, 37C
T4 construct: Soluble analyte in SPR; also called Cyno MerTK
T4 sequence: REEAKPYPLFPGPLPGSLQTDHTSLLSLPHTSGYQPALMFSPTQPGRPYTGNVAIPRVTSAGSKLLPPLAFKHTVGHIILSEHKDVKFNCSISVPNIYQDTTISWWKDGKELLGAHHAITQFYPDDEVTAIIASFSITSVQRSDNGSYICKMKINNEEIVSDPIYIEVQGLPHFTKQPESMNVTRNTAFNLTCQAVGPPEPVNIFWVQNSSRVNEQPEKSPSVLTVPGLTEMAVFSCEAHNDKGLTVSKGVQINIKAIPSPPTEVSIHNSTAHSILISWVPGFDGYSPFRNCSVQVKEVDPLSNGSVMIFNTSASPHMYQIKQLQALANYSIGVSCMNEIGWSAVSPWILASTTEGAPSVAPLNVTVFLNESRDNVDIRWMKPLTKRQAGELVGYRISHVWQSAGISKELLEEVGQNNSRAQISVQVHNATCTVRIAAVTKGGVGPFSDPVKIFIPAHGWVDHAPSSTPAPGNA
Method: as §1, §2

human MerTK [5] = target: T1, human MerTK; assay: SPR BIAcore T200, Ab captured, 37C; remark: listed apart in the source
Method: as §2

rat MerTK [6] = target: T2, rat MerTK; assay: SPR BIAcore T200, Ab captured, 37C; remark: listed apart in the source
Method: as §2

mouse MerTK [7] = target: T3, mouse MerTK; assay: SPR BIAcore T200, Ab captured, 37C; remark: listed apart in the source
Method: as §2

cynomolgus monkey MerTK [8] = target: T4, cynomolgus monkey MerTK; assay: SPR BIAcore T200, Ab captured, 37C; remark: listed apart in the source
Method: as §2

human MerTK [9] = target: T1, human MerTK; assay: SPR BIAcore T200, Ab captured, 37C; remark: listed apart in the source
[10] = target: T5, human MerTK on human macrophages (human, UniProt Q12866 21-999); assay: cell-based or functional assay
T5 sequence: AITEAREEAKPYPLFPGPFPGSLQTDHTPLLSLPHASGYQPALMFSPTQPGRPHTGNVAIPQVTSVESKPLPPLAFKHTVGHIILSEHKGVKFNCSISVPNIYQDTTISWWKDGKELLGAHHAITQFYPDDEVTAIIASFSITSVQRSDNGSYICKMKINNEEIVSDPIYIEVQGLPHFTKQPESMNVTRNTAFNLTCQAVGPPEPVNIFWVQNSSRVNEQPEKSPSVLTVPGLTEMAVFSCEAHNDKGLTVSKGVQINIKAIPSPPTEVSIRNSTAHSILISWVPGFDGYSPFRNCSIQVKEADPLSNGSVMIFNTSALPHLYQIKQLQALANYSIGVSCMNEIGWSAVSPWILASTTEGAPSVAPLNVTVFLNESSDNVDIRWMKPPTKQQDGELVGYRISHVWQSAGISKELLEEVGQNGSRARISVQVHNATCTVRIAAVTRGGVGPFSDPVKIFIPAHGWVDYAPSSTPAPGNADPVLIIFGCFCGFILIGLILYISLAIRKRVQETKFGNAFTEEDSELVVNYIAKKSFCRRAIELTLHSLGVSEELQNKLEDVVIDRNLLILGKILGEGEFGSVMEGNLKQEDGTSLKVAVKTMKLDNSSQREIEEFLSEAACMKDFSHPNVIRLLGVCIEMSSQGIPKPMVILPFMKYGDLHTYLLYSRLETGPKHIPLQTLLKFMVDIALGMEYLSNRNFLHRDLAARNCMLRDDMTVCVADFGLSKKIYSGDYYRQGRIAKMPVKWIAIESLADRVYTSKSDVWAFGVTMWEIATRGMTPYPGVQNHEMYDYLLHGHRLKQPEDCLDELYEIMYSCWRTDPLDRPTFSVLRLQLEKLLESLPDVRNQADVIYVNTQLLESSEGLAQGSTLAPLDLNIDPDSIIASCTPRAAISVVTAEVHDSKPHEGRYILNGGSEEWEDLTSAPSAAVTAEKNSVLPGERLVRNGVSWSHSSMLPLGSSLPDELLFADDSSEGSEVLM

B1: h10F7.v1 (antibody, V domains shown)
VH: EQQLVESGGGLVQPGGSLRLSCAVSGFSLSGYAMSWVRQAPGKGLEYIGVISSSGSSYYPSWAKGRFTISKDSSKNTVYLQMGSLRAEDMAVYFCARVQFYVGYAVYGYGIIDRLDLWGQGTLVTVSS
VL: DAVLTQSPDSLAVSLGERATINCQSSKSVYNNNWLSWYQQKPGQPPKLLIYRASTLESGVPDRFSGSGSGTDFTLTISSLQAEDVAVYFCAGGYSSSSSANAFGGGTKVEIK
notes: also called h10F7.V1 (Parent); 10F7 Humanized mAb V1
- Kd (human MerTK [1]): 6.7 nM
- Kd (rat MerTK [2]): 4.1 nM
- Kd (mouse MerTK [3]): 1.5 nM
- Kd (cynomolgus monkey MerTK [4]): 3 nM
- Kd (human MerTK [5]): 7.1 nM
- Kd (rat MerTK [6]): 3.6 nM
- Kd (mouse MerTK [7]): 1.5 nM
- Kd (cynomolgus monkey MerTK [8]): 3.1 nM
- Kd (human MerTK [9]): 7.3 nM

B2: h9E3.FN.v1 (antibody, V domains shown)
VH: EQQLVESGGGLIQPGGSLRLSCAVSGFSLSSNAMSWVRQAPGKGLEWIGIISSSGSTYSASWAKGRFTISKDSSKNTMYLQMNSLRAEDTAVYFCARVGFFVGYGAYDYGIIHRLDLWGQGTLVTVSS
VL: DAQLTQSPSTLSASVGDRVTITCQSSKSIYNNNWLSWYQQKPGKPPKLLIYDASDLASGVPSRFSGSGSGTEFTLTISSLQPDDFATYYCAGGYSGDSDYAFGGGTKVEIK
notes: also called h9E3.FN.V1 (Parent); 9E3.FN Humanized mAb V1
- Kd (human MerTK [1]): 11.2 nM
- Kd (rat MerTK [2]): 3.8 nM
- Kd (mouse MerTK [3]): 1.4 nM
- Kd (cynomolgus monkey MerTK [4]): 4.8 nM
- Kd (human MerTK [5]): 10.6 nM
- Kd (rat MerTK [6]): 3.7 nM
- Kd (mouse MerTK [7]): 1.5 nM
- Kd (cynomolgus monkey MerTK [8]): 4.5 nM
- Kd (human MerTK [9]): 12.2 nM

B3: h9E3.FN.v16 (antibody, V domains shown)
VH: EVQLVESGGGLIQPGGSLRLSCAASGFSLSSNAMSWVRQAPGKGLEWVSIISSSGSTYSASWAKGRFTISKDNSKNTLYLQMNSLRAEDTAVYYCARVGFFVGYGAYDYGIIHRLDLWGQGTLVTVSS
VL: DIQLTQSPSTLSASVGDRVTITCQSSKSIYNNNWLSWYQQKPGKPPKLLIYDASDLASGVPSRFSGSGSGTEFTLTISSLQPDDFATYYCAGGYSGDSDYAFGGGTKVEIK
notes: Humanized, human IgG1; also called 9E3.FN Humanized polished mAb
- IC50 (nM), efferocytosis by human macrophages, Average (3 Donors) [10]: 1.02 nM
- IC50 (nM), efferocytosis by human macrophages, Donor A [10]: 0.59 nM
- IC50 (nM), efferocytosis by human macrophages, Donor C [10]: 1.5 nM
- Max Inhibition (%), efferocytosis by human macrophages, Average (3 Donors) [10]: 57%
- Max Inhibition (%), efferocytosis by human macrophages, Donor A [10]: 58%
- Max Inhibition (%), efferocytosis by human macrophages, Donor C [10]: 55%
- Kd (human MerTK [1]): 5.8 nM
- Kd (rat MerTK [2]): 3 nM
- Kd (mouse MerTK [3]): 1.1 nM
- Kd (cynomolgus monkey MerTK [4]): 2.5 nM
